{
  "source": "paper PMC10092763",
  "biological_target": "PAX2 (UniProt Q02962)",
  "assay": "co-IP, FLAG-PAX2 with HA-AFF4",
  "conditions": "reference: wild type; sites S388",
  "data": [
    {"substance": "AFF4 (from UniProt Q9UHB7) S388A", "values": [
      {"measurement": "binding against the reference", "value": "weaker"}
    ]}
  ]
}
